The target in assay [1] is Zika virus (Asian strain, accession number KF993678) (Zika virus). In words: cell-based or functional assay.
Another assay concerns the target T1, human FcγRIIa (167R) (human, UniProt P12318 36-217).
T1 construct: also called human FcγR2a allelic variant 167R
T1 chain: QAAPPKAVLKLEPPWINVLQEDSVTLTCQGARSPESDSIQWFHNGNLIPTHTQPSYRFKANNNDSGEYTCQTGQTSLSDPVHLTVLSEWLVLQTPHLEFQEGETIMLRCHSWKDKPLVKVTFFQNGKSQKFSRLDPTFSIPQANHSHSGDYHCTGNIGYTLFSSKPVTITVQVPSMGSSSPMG
As to the kind of experiment: SPR (Biacore T200, pH 7.4): His-tagged FcγR captured, antibody alone or 1:1 immune complex with trimeric CD154 injected at 100 nM; response divided by capture level [c].

For the next assay, the target named is T2, mouse FcγRIII (mouse, UniProt P08508 31-215).
T2 construct: also called mFcγRIII; mouse FcγR3
T2 chain: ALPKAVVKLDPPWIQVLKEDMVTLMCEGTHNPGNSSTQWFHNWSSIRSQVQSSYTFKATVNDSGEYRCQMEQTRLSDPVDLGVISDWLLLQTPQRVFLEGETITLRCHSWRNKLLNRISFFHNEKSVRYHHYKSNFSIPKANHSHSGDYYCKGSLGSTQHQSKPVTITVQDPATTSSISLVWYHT
The description is as above.

The next assay addresses T3, human FcγRIIIb (NA2) (human, UniProt O75015 17-200).
T3 construct: also called human FcγR3b allelic variant NA2
T3 chain: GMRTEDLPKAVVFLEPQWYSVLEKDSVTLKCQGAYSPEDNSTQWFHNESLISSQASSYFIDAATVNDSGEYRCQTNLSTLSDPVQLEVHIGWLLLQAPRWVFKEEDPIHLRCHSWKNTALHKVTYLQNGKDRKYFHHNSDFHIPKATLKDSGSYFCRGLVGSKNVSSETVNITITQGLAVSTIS
As to the kind of experiment: SPR (Biacore T200, pH 7.4): His-tagged FcγR captured, antibody alone or 1:1 immune complex with trimeric CD154 injected at 100 nM; response divided by capture level [h].

The target in another assay is T4, human FcγRIIIb (NA1) (human, UniProt O75015 17-200).
T4 construct: also called human FcγR3b allelic variant NA1
T4 chain: T3 chain with S20R, S49N, N66D, I90V
As to the kind of experiment: SPR (Biacore T200, pH 7.4): His-tagged FcγR captured, antibody alone or 1:1 immune complex with trimeric CD154 injected at 100 nM; response divided by capture level [g].

Another assay deals with T5, mouse FcγRI (mouse, UniProt P26151 25-297).
T5 construct: also called mFcγRI; mouse FcγR1
T5 sequence: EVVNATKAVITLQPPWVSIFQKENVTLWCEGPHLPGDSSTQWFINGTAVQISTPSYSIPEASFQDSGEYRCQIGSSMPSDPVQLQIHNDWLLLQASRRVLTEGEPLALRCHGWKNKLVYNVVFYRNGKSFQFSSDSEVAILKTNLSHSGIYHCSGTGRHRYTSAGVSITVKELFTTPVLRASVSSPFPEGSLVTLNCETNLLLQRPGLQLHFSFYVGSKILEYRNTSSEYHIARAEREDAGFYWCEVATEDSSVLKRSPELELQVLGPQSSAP
As to the kind of experiment: SPR (Biacore T200, pH 7.4): His-tagged FcγR captured, antibody alone or 1:1 immune complex with trimeric CD154 injected at 100 nM; response divided by capture level [a].

For another assay, the target named is T6, human FcγRIIb (human, UniProt P31994 43-217).
T6 construct: also called human FcγR2b
T6 sequence: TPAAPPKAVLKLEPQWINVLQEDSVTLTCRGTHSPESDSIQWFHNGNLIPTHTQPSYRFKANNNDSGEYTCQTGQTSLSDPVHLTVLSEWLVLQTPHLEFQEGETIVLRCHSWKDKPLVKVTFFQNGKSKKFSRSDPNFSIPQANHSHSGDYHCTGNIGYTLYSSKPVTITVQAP
As to the kind of experiment: SPR (Biacore T200, pH 7.4): His-tagged FcγR captured, antibody alone or 1:1 immune complex with trimeric CD154 injected at 100 nM; response divided by capture level [d].

A further assay deals with T7, mouse FcγRIV (mouse, UniProt A0A0B4J1G0 21-203).
T7 construct: also called mFcγRIV; mouse FcγR4
T7 sequence: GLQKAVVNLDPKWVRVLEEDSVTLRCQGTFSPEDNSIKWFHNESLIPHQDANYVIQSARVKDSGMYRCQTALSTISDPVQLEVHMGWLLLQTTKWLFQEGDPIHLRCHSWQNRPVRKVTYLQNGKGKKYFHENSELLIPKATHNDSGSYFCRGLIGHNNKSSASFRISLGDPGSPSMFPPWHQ
Described as above.

The target in assay [2] is T8, Recombinant soluble E protein (0.8E-His) from DENV-3 (DENV-3, UniProt P27915 281-673).
Assay [3] has as its target T8, Recombinant soluble E protein …. In words: SPR Biacore T200.

Residue numbers refer to the chain shown, from its start.

B1: DG_3CH1047-SG1106/3CL-SK1 (antibody)
heavy: QVQLVQSGPDVEKPGASVKVSCKASGYTFTSYYMHWVRQAPGQGLEWMGVINPRGGSRRSAQKFQGRITMTRDTSTSTVYMELSSLRSEDTAVYYCARGGEALFYDSYTTPFDGGSWWFDPWGQGSLVTVSSASTKGPSVFPLAPSSKSTSGGTAALGCLVKDYFPEPVTVSWNSGALTSGVHTFPAVLQSSGLYSLSSVVTVPSSSLGTQTYICNVNHKPSNTKVDKRVEPKSCDKTHTCPPCPAPEAAGGPSVFLFPPKPKDTLMISRTPEVTCVVVDVSHEDPEVKFNWYVDGVEVHNAKTKPREEQYNSTYRVVSVLTVLHQDWLNGKEYKCKVSNAALPAPISKTISKAKGQPREPQVYTLPPSREEMTKNQVSLTCLVKGFYPSDIAVEWESNGQPENNYKTTPPVLDSDGSFFLYSKLTVDKSRWQQGNVFSCSVLHEALHAHYTRKELSLSP
light: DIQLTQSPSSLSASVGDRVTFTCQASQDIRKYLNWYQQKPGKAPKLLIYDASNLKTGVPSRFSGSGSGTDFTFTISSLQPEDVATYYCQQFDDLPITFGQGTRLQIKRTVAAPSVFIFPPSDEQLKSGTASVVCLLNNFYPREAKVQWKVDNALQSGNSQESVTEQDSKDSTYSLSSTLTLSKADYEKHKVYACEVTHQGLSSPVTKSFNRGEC
In the case of B1, in assay [1], the “EC50 (µg/mL), FRNT neutralization, Average” value turned out to be 0.63 µg/mL; the “EC50 (µg/mL), FRNT neutralization, Expt 1” value turned out to be 0.33 µg/mL; the “EC50 (µg/mL), FRNT neutralization, Expt 2” value was determined as 0.93 µg/mL.

B2: Anti-CD154 antibody with Fc variant LALA + KAES (SG1095) (antibody, human IgG1, kappa, L234A L235A)
heavy: EVQLVESGGGSVKPGGSLKLSCAASGFTFSDHYMYWVRQTPEKRLEWVAIISGGGSYTSYPDSMKGRFTISRDNAKNILHLQMSSLKSEDTAMYYCTRESNGKPGFAYWGQGTLVTVSAASTKGPSVFPLAPSSKSTSGGTAALGCLVKDYFPEPVTVSWNSGALTSGVHTFPAVLQSSGLYSLSSVVTVPSSSLGTQTYICNVNHKPSNTKVDKRVEPKSCDKTHTCPPCPAPEAAGGPSVFLFPPKPKDTLMISRTPEVTCVVVDVSHEDPEVKFNWYVDGVEVHNAKTKPREEQYNSTYRVVSVLTVLHQDWLNGKEYKCKVSNAALPAPISKTISKAKGQPREPQVYTLPPSREEMTKNQVSLTCLVKGFYPSDIAVEWESNGQPENNYKTTPPVLDSDGSFFLYSKLTVDKSRWQQGNVFSCSVMHEALHNHYTQKSLSLSP
light: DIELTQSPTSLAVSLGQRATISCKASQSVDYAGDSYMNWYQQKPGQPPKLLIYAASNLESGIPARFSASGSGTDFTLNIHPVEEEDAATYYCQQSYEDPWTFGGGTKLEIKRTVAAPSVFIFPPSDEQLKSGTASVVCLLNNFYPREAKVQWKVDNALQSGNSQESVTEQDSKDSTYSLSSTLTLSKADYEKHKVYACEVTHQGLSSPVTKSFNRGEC
In the case of B2, the binding result with human FcγRIIa (167R), with mouse FcγRIII, with human FcγRIIIb (NA2), in the assay with human FcγRIIIb (NA1), with mouse FcγRI and with human FcγRIIb was “no binding (tested: 100 nM)” in each case. Further, the binding result with mouse FcγRIV is “no binding (tested: 100 nM)”.

B3: Anti-CD154 antibody with Fc variant LALA + KWES (SG1088) (antibody, human IgG1, kappa, L234A L235A)
heavy: B2 heavy with A328W
light: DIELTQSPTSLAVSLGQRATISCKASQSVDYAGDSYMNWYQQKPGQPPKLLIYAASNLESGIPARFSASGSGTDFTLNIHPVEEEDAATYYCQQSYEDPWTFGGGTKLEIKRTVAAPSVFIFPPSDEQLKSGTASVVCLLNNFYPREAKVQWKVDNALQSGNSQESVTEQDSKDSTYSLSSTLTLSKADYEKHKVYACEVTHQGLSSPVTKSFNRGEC
For B3, the binding result with human FcγRIIIb (NA2), with human FcγRIIIb (NA1), with human FcγRIIb and with mouse FcγRIV was “no binding (tested: 100 nM)” each time.

B4: DG_3CH-SG182/3CL-SK1 (antibody, V domains shown)
VH: QVQLVQSGPDVEKPGASVKVSCKASGYTFTSNYIHWVRQAPGQGLEWMGVINPRGGSTASAQKFQGRITMTRDTSTSTVYMELSSLRSDDTAVYYCARGGRALFYDSYTTPRDGGSWWFDPWGQGSLVTVSS
VL: DIQLTQSPSSLSASVGDRVTFTCQASQDIRKYLNWYQQKPGKAPKLLIYDASNLKTGVPSRFSGSGSGTDFTFTISSLQPEDVATYYCQQFDDLPITFGQGTRLQIKR
B4: the Kd in assay [2] was 6.35 nM.

B5: DG_3CH953-SG182/3CL499-SK1 (antibody, human IgG1, kappa, V domains shown)
VH: B4 VH with T58R, A59R, D89E, R112F
VL: B4 VL with T56F, D93A
B5: the binding result in [3] is on record as “binds”.

B6: DG_3CH987-SG182/3CL-SK1 (antibody, V domains shown)
VH: B4 VH with N32Y, T58R, A59R, D89E, R112F
VL: B4 VL
Turning to B6, the equilibrium dissociation constant (Kd) in assay [2] amounted to 0.000988 nM.

(Values after patent US20240190948A1 (Chugai, published 2024).)
